{
  "source": "paper PMC3500527",
  "about": "(Cancer cell, 2012)",
  "key": {"[1]": {"molecular_target": "T1, profilin-2 (immunoprecipitated from cell lysates; mass spectrometry) (UniProt P35080 1-140)", "T1 sequence (looked up)": "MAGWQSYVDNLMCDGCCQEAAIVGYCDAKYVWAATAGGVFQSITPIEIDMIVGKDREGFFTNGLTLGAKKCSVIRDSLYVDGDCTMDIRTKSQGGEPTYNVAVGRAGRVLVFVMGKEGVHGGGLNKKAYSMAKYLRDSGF", "experiment": "co-IP"}, "Cy3-hVASP1-240aa": {"molecular_target": "Cy3-hVASP1-240aa (human, UniProt P50552 1-240, Cy3 fluorophore (site not stated))", "experiment": "AUC"}, "Cy3-mEVL1-235aa": {"molecular_target": "Cy3-mEVL1-235aa (mouse (from the label mEVL), UniProt P70429 1-235, Cy3 fluorophore (site not stated))", "experiment": "AUC"}, "HA-EVL": {"molecular_target": "T2, HA-EVL (UniProt Q9UI08 1-416)", "T2 sequence (looked up)": "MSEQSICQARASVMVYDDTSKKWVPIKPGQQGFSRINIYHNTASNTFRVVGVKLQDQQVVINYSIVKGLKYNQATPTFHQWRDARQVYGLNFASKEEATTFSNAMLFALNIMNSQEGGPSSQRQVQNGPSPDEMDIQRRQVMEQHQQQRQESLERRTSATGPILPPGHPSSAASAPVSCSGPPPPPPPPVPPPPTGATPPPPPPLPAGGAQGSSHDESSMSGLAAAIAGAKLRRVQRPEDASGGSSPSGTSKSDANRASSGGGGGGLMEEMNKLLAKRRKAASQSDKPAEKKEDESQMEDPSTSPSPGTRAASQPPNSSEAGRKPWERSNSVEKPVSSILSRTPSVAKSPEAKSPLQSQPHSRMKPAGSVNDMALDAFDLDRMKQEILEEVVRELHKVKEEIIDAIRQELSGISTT", "experiment": "co-IP"}},
  "data": [
    {"binder": "EVL (immunoprecipitated with profilins; mass spectrometry) (natural protein, UniProt Q9UI08 1-416, looked up) MSEQSICQARASVMVYDDTSKKWVPIKPGQQGFSRINIYHNTASNTFRVVGVKLQDQQVVINYSIVKGLKYNQATPTFHQWRDARQVYGLNFASKEEATTFSNAMLFALNIMNSQEGGPSSQRQVQNGPSPDEMDIQRRQVMEQHQQQRQESLERRTSATGPILPPGHPSSAASAPVSCSGPPPPPPPPVPPPPTGATPPPPPPLPAGGAQGSSHDESSMSGLAAAIAGAKLRRVQRPEDASGGSSPSGTSKSDANRASSGGGGGGLMEEMNKLLAKRRKAASQSDKPAEKKEDESQMEDPSTSPSPGTRAASQPPNSSEAGRKPWERSNSVEKPVSSILSRTPSVAKSPEAKSPLQSQPHSRMKPAGSVNDMALDAFDLDRMKQEILEEVVRELHKVKEEIIDAIRQELSGISTT", "values": [
      {"measurement": "fold immunoprecipitated relative to profilin-1", "setting": "[1]", "result": 7, "unit": "fold"}
    ]},
    {"binder": "VASP (immunoprecipitated with profilins) (natural protein, UniProt P50552 1-380, looked up) MSETVICSSRATVMLYDDGNKRWLPAGTGPQAFSRVQIYHNPTANSFRVVGRKMQPDQQVVINCAIVRGVKYNQATPNFHQWRDARQVWGLNFGSKEDAAQFAAGMASALEALEGGGPPPPPALPTWSVPNGPSPEEVEQQKRQQPGPSEHIERRVSNAGGPPAPPAGGPPPPPGPPPPPGPPPPPGLPPSGVPAAAHGAGGGPPPAPPLPAAQGPGGGGAGAPGLAAAIAGAKLRKVSKQEEASGGPTAPKAESGRSGGGGLMEEMNAMLARRRKATQVGEKTPKDESANQEEPEARVPAQSESVRRPWEKNSTTLPRMKSSSSVTTSETQPCTPSSSDYSDLQRVKQELLEEVKKELQKVKEEIIEAFVQELRKRGSP", "values": [
      {"measurement": "fold immunoprecipitated relative to profilin-1", "setting": "[1]", "result": 1.8, "unit": "fold"}
    ]},
    {"binder": "mouse profilin-2a (natural protein, UniProt Q9JJV2 1-140, looked up) MAGWQSYVDNLMCDGCCQEAAIVGYCDAKYVWAATAGGVFQSITPVEIDMIVGKDREGFFTNGLTLGAKKCSVIRDSLYVDGDCTMDIRTKSQGGEPTYNVAVGRAGRVLVFVMGKEGVHGGGLNKKAYSMAKYLRDSGF", "values": [
      {"measurement": "binding result", "setting": "Cy3-hVASP1-240aa", "result": "binds"},
      {"measurement": "binding result", "setting": "Cy3-mEVL1-235aa", "result": "binds"}
    ]},
    {"binder": "profilin-2 (natural protein, human (endogenous in SUM159), UniProt P35080 1-140, looked up) MAGWQSYVDNLMCDGCCQEAAIVGYCDAKYVWAATAGGVFQSITPIEIDMIVGKDREGFFTNGLTLGAKKCSVIRDSLYVDGDCTMDIRTKSQGGEPTYNVAVGRAGRVLVFVMGKEGVHGGGLNKKAYSMAKYLRDSGF", "values": [
      {"measurement": "fold immunoprecipitated relative to profilin-1", "setting": "HA-EVL", "result": 10, "unit": "fold"}
    ]}
  ]
}
